Results on three molecules are retold here after PMC10847431, “Evidence the Isc iron–sulfur cluster biogenesis machinery is the source of iron for [NiFe]-cofactor biosynthesis in Escherichia coli” (Scientific Reports, 2024).

B1: StrepII-tagged HypC (natural protein, E. coli, UniProt P0AAM3 2-90, looked up)
chain: CIGVPGQIRTIDGNQAKVDVCGIQRDVDLTLVGSCDENGQPRVGQWVLVHVGFAMSVINEAEARDTLDALQNMFDVEPDVGALLYGEEK
modifications: mixed population: unmodified species and species with +26 Da, +28 Da (CO or formyl), +16 Da (oxidation) and +136 Da (proposed Fe(CN)2CO) modifications, all associated with or dependent on the N-terminal cysteine residue (Cys2)
notes: HypC, hydrogenase maturation factor of Escherichia coli; lacks M1 (formyl-methionine lost after translation), so that Cys2 is the N-terminal residue; deconvoluted mass with the StrepII tag 10,641.5 Da; also called HypCStrep; StrepII-HypC; source: purified anoxically (StrepTactin Sepharose, when required Q-Sepharose); not shown: StrepII, C-terminal, kept
B3: HypD (natural protein, E. coli, UniProt P24192 1-373, looked up)
chain: MRFVDEYRAPEQVMQLIEHLRERASHLSYTAERPLRIMEVCGGHTHAIFKFGLDQLLPENVEFIHGPGCPVCVLPMGRIDTCVEIASHPEVIFCTFGDAMRVPGKQGSLLQAKARGADVRIVYSPMDALKLAQENPTRKVVFFGLGFETTMPTTAITLQQAKARDVQNFYFFCQHITLIPTLRSLLEQPDNGIDAFLAPGHVSMVIGTDAYNFIASDFHRPLVVAGFEPLDLLQGVVMLVQQKIAAHSKVENQYRRVVPDAGNLLAQQAIADVFCVNGDSEWRGLGVIESSGVHLTPDYQRFDAEAHFRPAPQQVCDDPRARCGEVLTGKCKPHQCPLFGNTCNPQTAFGALMVSSEGACAAWYQYRQQESEA
notes: HypD, hydrogenase maturation factor of Escherichia coli; printed mass 41,363.4 Da without and 41,715 Da with the [4Fe-4S] cluster; Carries a [4Fe-4S] cluster in all isolated complexes; No tag is named for HypD; also called native HypD; source: co-purified anoxically with it (StrepTactin Sepharose, when required Q-Sepharose)

The target in experiment [1] is B3. The experiment in a line: pull-down; StrepII-tagged HypC co-produced with HypD in E. coli strains with defects in iron metabolism; anoxic StrepTactin Sepharose affinity purification; SDS-PAGE with Coomassie staining and western blots with antisera against HypD and HypC. To be noted: partners not purified. (In general: In western blotting, separated proteins are transferred to a membrane and probed.)

The target of experiment [2] is B3. As to the kind of experiment: native MS; anaerobically isolated StrepII-tagged HypC-HypD complexes, about 10 μM, 500 mM ammonium acetate pH 6.8, nano-ESI High-Mass Q-TOF II, collision energy 30 V (90 V for CID dissociation); complexes from DHP-D, ΔsufA, ΔiscU and ΔentC-ΔfeoB strains. To be noted: both partners purified.
The experiment “StrepII-tagged HypC” addresses B1. The description is as above. To be noted: both partners purified.

“And” between values parts separate entries of the source, which are not always exact repeats. Identical values can stand only once.

Consider B1, for which the binding result with HypD [1] is given as “binds”.

B2: StrepII-tagged HypC(C2A) (natural protein, E. coli, UniProt P0AAM3 2-90, looked up)
chain: AIGVPGQIRTIDGNQAKVDVCGIQRDVDLTLVGSCDENGQPRVGQWVLVHVGFAMSVINEAEARDTLDALQNMFDVEPDVGALLYGEEK
notes: HypC of Escherichia coli with the exchange C2A (codon 2 TGC to GCG); single major species, deconvoluted mass 10,611 Da, without the modifications seen on native HypC; lacking M1 as native HypC; also called StrepII-HypCC2A; source: E. coli DHP-D (ΔhypD) carrying pT-hypDC(C2A)Strep, co-produced with HypD; purified anoxically (StrepTactin Sepharose); not shown: StrepII, C-terminal, kept
For the molecule B2, in the experiment with HypD [2], the binding result is on record as “binds”.

Turning to B3, in the experiment with StrepII-tagged HypC, the “stoichiometry N” value is 1 HypC:HypD; the “stoichiometry of a minor complex species” value is 2 HypC:HypD (2:1) and 1 HypC:HypD (2:2).
